This note sets out measurements from patent publication US20240108738A1 (Bicycle, published 2024).

Experiment [1] deals with T1, human CD16a F176 variant, biotinylated (human, UniProt P08637 17-208, C-terminally biotinylated).
T1 construct: supplier is told for the AlphaScreen assay only; also called F Variant; FcγRIIIA F variant
The experiment can be described thus: SPR. Here is the method:
(§1) The SPR analysis was run at 25° C. at a flow rate of 50 μl/min with 60 seconds association and dissociation between 60 and 200 seconds. Data were corrected for DMSO excluded volume effects. All data were double-referenced for blank injections and reference surface using standard processing procedures and data processing and kinetic fitting were performed using Scrubber software, version 2.0c (BioLogic Software). Data were fitted using simple 1:1 binding model allowing for mass transport effects where appropriate.
(§2) For analysis of peptide binding, a Biacore 8k+ instrument was used with a CM5 chip (Cytiva). All experiments were carried out at 25° C. Streptavidin was immobilized on all flow cells by standard amine coupling chemistry. The running buffer was HBS-N(Cytiva, 10 mM HEPES, 0.15 M NaCl, pH 7.4) and the flow rate was 10 μl/min. The carboxymethyl dextran surface was activated with a 1:1 ratio of 0.4 M 1-ethyl-3-(3-dimethylaminopropyl) carbodiimide hydrochloride (EDC)/0.1 M N-hydroxy succinimide (NHS) (Cytiva) for 420s. Streptavidin (ProSpec, cat no. PRO-791) was diluted to 0.2 mg/ml in 10 mM sodium acetate pH 4.5 and was injected onto the chip surface for 600 s. Residual activated groups were blocked with a 420 s injection of 1 M ethanolamine (pH 8.5). The final surface density was 2000-3000 RU. Biotinylated CD16a was diluted to 5 μg/ml in HBS-N and was captured on flow cell 2 only of the streptavidin chip at a flow rate of 10 μl/min to 1500-2500 RU. The buffer was then changed to PBS-P+(Cytiva) supplemented with 0.5-2% DMSO. […] The flow rate was 30 μl/min with 100 s association and 400 s dissociation. Data were corrected for DMSO volume exclusion effects. All data were double-referenced against blank injections and reference surface response using standard processing procedures. Data processing and kinetic fitting was performed using Biacore Insight Evaluation Software with Extended Screening and Characterization Extension (Cytiva). Data were fitted using steady state affinity 1:1 binding model to determine KD. Data were fitted using kinetic 1:1 binding model to determine kinetic constants where appropriate.

For experiment [2], the target named is T2, CD16a/FCgRIIIa (F158 variant) on HEK293 cells, Terbium-labelled (UniProt P08637 17-254, limits assumed, Terbium donor dye).
T2 construct: whole, on cells; also called cellular CD16a
Kind of experiment: HTRF competition vs IgG-d2 on HEK293 cells. The method, then:
Binding to cellular CD16a/FCgRIIIa (F158 variant) was determined through competition with IgG for binding to CD16a receptors expressed on HEK293 cells.
The experimental procedure followed the manufacturer's instructions detailed in the product information for the CD16 (FCγRIIIa) kit (Cisbio-6FR3APAG). […] Bicycle peptides were dispensed using Echo compound handler at a top concentration of 20 μM. The competing unlabeled antibodies and bicyclic peptides were added in a three-fold dilution series in Tag-lite buffer into PerkinElmer-ProxiPlate-384 Plus.
The HEK293 cell expressing Terbium-labelled CD16a were thawed and washed in PBS and added to the wells of PerkinElmer-ProxiPlate-384 Plus containing the competitor compounds. […] The data was plotted in Graph pad prism and IC50-values were determined to indicate unlabeled antibody or bicyclic peptide competition for cellular binding to the CD16a receptor.
Background: TR-FRET usually uses a lanthanide donor and a delayed reading to cut background.

In experiment [3] the target is T3, human CD16a V176 variant, biotinylated (human, UniProt P08637 17-208, N-terminally biotinylated in-house).
T3 construct: supplier is told for the AlphaScreen assay only; also called V Variant; FcγRIIIA V variant
Kind of experiment: SPR. Here is the method: as §1, §2
(Surface plasmon resonance follows binding to a sensor surface in real time, without labels.)

Experiment [4] has as its target T3, human CD16a V176 variant, biotinylated. The experiment can be described thus: AlphaScreen competition vs mouse IgG2a. Here is the method:
(§3) Bicyclic peptides were evaluated with a CD16a-IgG competition assay using Perkin Elmer AlphaScreen™ technology. Acceptor beads (Perkin Elmer 6762003) were chemically conjugated via a reductive amination reaction with a mouse IgG2a mAb to link via the free amines, based the manufacturer's protocol. Briefly, beads were centrifuged and resuspended in a 130 mM sodium phosphate buffered solution pH 8.0 containing 0.2 mg mAb, 20 mM NaBH₃CN (Sigma 296945) and 0.06% P20 surfactant (Cytiva Life Sciences, BR-1000-54) and incubated on a rotary shaker at 44° C. for 22 hours. Unbound sites were then blocked by adding a final concentration of 3 mg/ml carboxymethoxylamine (CMO) (Sigma C13408), before continuing shaking incubation for a further 1 hour. Beads were washed by centrifugation and resuspension in 100 mM TRIS-HCl pH 8.0 (Sigma T2694), before a final resuspension in PBS (GIBCO 14190)+0.05% Proclin-300 (Sigma 48912-U), at 5 mg/ml and storage at 4° C. until use.
(§4) The assay was performed in white 384 well plates (PerkinElmer, 6007290) using assay buffer 25 mM HEPES (Sigma-Aldrich, H0887), 100 mM NaCl (Sigma-Aldrich, S5150), 0.5% BSA (Sigma-Aldrich, A3294), 0.05% P20 (Cytiva Life Sciences, BR-1000-54), pH7.4 for all dilutions. […] Mouse IgG2a-conjugated acceptor beads described above were added at a final concentration of 20 ug/ml and incubated at room temperature for 30 minutes under subdued lighting. Streptavidin coated donor beads (PerkinElmer, 6760002) were added a final concentration of 20 ug/ml and incubated at room temperature for 60 minutes under subdued lighting. […] Data was normalised to a high control containing all assay components except Bicyclic peptide and fit to a four-parameter non-linear regression in GraphPad Prism 8.0.2 to generate an IC50 value.
(In Alpha technology, singlet oxygen from a donor bead excites a nearby acceptor bead.)

The target in experiment [5] is T1, human CD16a F176 variant, biotinylated. The experiment can be described thus: AlphaScreen competition vs mouse IgG2a. Here is the method:
as §3, §4

Numbered stars: 1 amine (or outer) side, 2 acyl side, 3 side chain; on linkers, the order of the positions; unused ones are H or OH. Bridge positions count the residues as written; N and C are the ends. Square brackets hold non-standard residues; d marks the D form. Primed or numbered codes have the meaning given here. Ends that are not written are not given here. * marks the point of attachment. TBMT(3) = 2,4,6-tris(bromomethyl)-s-triazine scaffold, C(c1nc(C[*:2])nc(C[*:3])n1)[*:1]; TBMT = 2,4,6-tris(bromomethyl)-s-triazine, C(c1nc(C[*:2])nc(C[*:3])n1)[*:1]; TBMT″ = 2,4,6-tris(bromomethyl)-s-triazine, scaffold on three Cys; TATA = O=C(CC[*:1])N1CN(C(=O)CC[*:2])CN(C(=O)CC[*:3])C1; Biotin = O=C1N[C@H]2[C@H](CS[C@H]2CCCCC(=O)*)N1; hPhe = N[C@@H](CCc1ccccc1)C(=O)O; Cba = N[C@@H](CC1CCC1)C(=O)O; Pent4ynoyl = C#CCCC(=O)*; Sar = CNCC(=O)O

T3 sequence (P08637 other isoform, or with tags, fused parts or gaps mutant limits assumed): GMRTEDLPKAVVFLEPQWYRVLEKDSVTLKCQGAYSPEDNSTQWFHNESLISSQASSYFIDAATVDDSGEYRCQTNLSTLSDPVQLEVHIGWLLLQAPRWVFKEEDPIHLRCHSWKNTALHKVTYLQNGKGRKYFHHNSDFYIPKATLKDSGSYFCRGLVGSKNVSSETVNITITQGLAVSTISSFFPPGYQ
T2 sequence (P08637 17-254 limits assumed, change not shown): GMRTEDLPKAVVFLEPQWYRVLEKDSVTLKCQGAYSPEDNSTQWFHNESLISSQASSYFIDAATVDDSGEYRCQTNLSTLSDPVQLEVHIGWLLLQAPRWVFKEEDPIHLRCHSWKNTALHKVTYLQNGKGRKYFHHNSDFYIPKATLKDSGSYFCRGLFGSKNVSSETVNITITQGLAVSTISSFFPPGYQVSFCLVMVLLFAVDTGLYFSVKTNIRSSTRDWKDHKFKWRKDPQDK
T1 sequence (P08637 17-208 limits assumed, change not shown): as the sequence (P08637 other isoform, or with tags, fused parts or gaps mutant limits assumed) above, with V160F counted along it

What is called Kd is the equilibrium constant for the complex coming apart. As to ACVGL[Cba]ELGPCSDLCA-NH2 (linker 2-11-15 via TBMT″, scaffold TBMT) [BCY16509], the affinity in experiment [1], expressed as Kd, was 2820 nM.

Broadly, the IC50 is the concentration at which inhibition is half-maximal. On to ACRWHXSEPCGAWCA (CiRWH[HyP]SEPCiiGAWCiii, scaffold TBMT) [BCY20383], for which the concentration for half-maximal inhibition (IC50) in experiment [2] was found to be 1110 nM. Besides, the figures for the dissociation constant (Kd) in experiment [3] and in experiment [1] were 202 nM and 470 nM, respectively.

ACRXSVEDPCGAWCA (CiR[6ClTrp]SVEDPCiiGAWCiii, scaffold TBMT) [BCY19050]: the Kd in experiment [1] amounted to 2150 nM.

B1: BCY15915 (peptide)
peptide: ACPPTVYCHPLDCAK-NH2
modifications: linker 2-8-13 via TATA (inferred); not fully specified (residue 15); also: homodimer via shared N-(amine-PEG2)-N-bis(PEG3-azide) linker
notes: homodimer of BCY15685; scaffold TATA; also called CD16a fluorescent dimer
Turning to B1, the results for the half-maximal inhibitory concentration (IC50) in experiment [4] and in experiment [5] were 32.5 nM and 27.8 nM, respectively.

Molecule ACVGLLELGPCSDLCAK(Pent4ynoyl)-NH2 (linker 2-11-15 via TBMT (inferred), scaffold TBMT) [BCY16165] displayed a Kd in experiment [3] of 3230 nM.

Regarding ACRWHXSEPCGAWCA (CiRWH[Aze]SEPCiiGAWCiii, scaffold TBMT) [BCY20382], in experiment [2], the half-inhibitory concentration (IC50) was 749 nM. Also, the affinity in experiment [1], expressed as Kd, was 385 nM.

B2: BCY21694 (peptide)
peptide: Ac-CRWH[hPhe]SEPCGAWC-NH2
modifications: linker 1-9-13 via TBMT(3)
SMILES: CC(=O)N[C@H]1CSCc2nc3nc(n2)CSC[C@H](NC(=O)[C@@H]2CCCN2C(=O)[C@H](CCC(=O)O)NC(=O)[C@H](CO)NC(=O)[C@H](CCc2ccccc2)NC(=O)[C@H](Cc2c[nH]cn2)NC(=O)[C@H](Cc2c[nH]c4ccccc24)NC(=O)[C@H](CCCNC(=N)N)NC1=O)C(=O)NCC(=O)N[C@@H](C)C(=O)N[C@@H](Cc1c[nH]c2ccccc12)C(=O)N[C@H](C(N)=O)CSC3
notes: scaffold TBMT
In experiment [2], B2 came in with an IC50 of 166 nM.

On to ACRWHFXEPCGAWCA (CiRWHF[HSer]EPCiiGAWCiii, scaffold TBMT) [BCY20388], for which the equilibrium dissociation constant (Kd) in experiment [3] worked out at 1080 nM; in experiment [1], 2980 nM.

Turning to ACVGXEELGPCSDLCA (CiVG[tBuAla]EELGPCiiSDLCiii, scaffold TBMT) [BCY16501], in experiment [3], the affinity, expressed as Kd, was 3220 nM.

ACRWHXSEPCGAWCA (CiRWH[4MePhe]SEPCiiGAWCiii, scaffold TBMT) [BCY20380] yielded an IC50 in experiment [2] of 898 nM.

ACRWSVEXPCGAWCA (CiRWSVE[Gla]PCiiGAWCiii, scaffold TBMT) [BCY16608] yielded an IC50 in experiment [2] of 1800 nM.

ACRXSVEDPCGAWCA (CiR[6MeTrp]SVEDPCiiGAWCiii, scaffold TBMT) [BCY19046] displayed a Kd in experiment [1] of 1600 nM.

ACRWSVEDPCGAWCA-NH2 (linker 2-10-14 via TBMT; also: scaffold TATA, TATB or TBMT, scaffold TBMT) [BCY14950]: in experiment [2], the IC50 is 2040 nM.

Take ACRWSVEDPC[dA]AWCA-NH2 (linker 2-10-14 via TBMT (inferred), scaffold TBMT) [BCY14956]: the concentration for half-maximal inhibition (IC50) in experiment [2] is 1400 nM. The Kd in experiment [3] worked out at 2150 nM; in experiment [1] it was 2660 nM.

Turning to ACRWXFSEPCGAWCA (CiRW[4FPhe]FSEPCiiGAWCiii, scaffold TBMT) [BCY20379], binding in experiment [3] was characterised by a dissociation constant (Kd) of 1430 nM.

The molecule CRWH[hPhe]SEPCGAWC-NH2 (linker 1-9-13 via TBMT″, scaffold TBMT) [BCY21693] came in with an IC50 in experiment [2] of 377 nM.

B3: BCY12622 (peptide)
peptide: ACPPEVWCHPLDCA[Sar][Sar][Sar][Sar][Sar][Sar]K(Biotin)-NH2
modifications: linker 2-8-13 via TATA; N-terminus assumed
SMILES: CC(C)C[C@@H]1NC(=O)[C@@H]2CCCN2C(=O)[C@H](Cc2c[nH]cn2)NC(=O)[C@@H]2CSCCC(=O)N3CN(CN(C3)C(=O)CCSC[C@H](NC(=O)[C@H](C)N)C(=O)N3CCC[C@H]3C(=O)N3CCC[C@H]3C(=O)N[C@@H](CCC(=O)O)C(=O)N[C@@H](C(C)C)C(=O)N[C@@H](Cc3c[nH]c4ccccc34)C(=O)N2)C(=O)CCSC[C@@H](C(=O)N[C@@H](C)C(=O)N(C)CC(=O)N(C)CC(=O)N(C)CC(=O)N(C)CC(=O)N(C)CC(=O)N(C)CC(=O)N[C@@H](CCCCNC(=O)CCCC[C@@H]2SC[C@@H]3NC(=O)N[C@@H]32)C(N)=O)NC(=O)[C@H](CC(=O)O)NC1=O
notes: scaffold TATA
In the case of B3, the Kd stood at 4000 nM in experiment [3] and 1000 nM in experiment [1].

Take ACRWHFSEPC[dA]AWCA-NH2 (linker 2-10-14 via TBMT″ (inferred), scaffold TBMT) [BCY20392]: the Kd in experiment [3] is 385 nM; in experiment [1], 825 nM.

As to ACVGLXELGPCSDLCA (CiVGL[tBuAla]ELGPCiiSDLCiii, scaffold TBMT) [BCY16508], the Kd in experiment [1] stood at 2980 nM.

As to ACVGLXELGPCSDLCA (CiVGL[Nle]ELGPCiiSDLCiii, scaffold TBMT) [BCY16511], the values for the Kd in experiment [3] and in experiment [1] were 5000 nM and 4020 nM, respectively.

Turning to ACRWSVEDPCGAWCAK(Pent4ynoyl)-NH2 (linker 2-10-14 via TBMT (inferred), scaffold TBMT) [BCY13883], the affinity in experiment [3], expressed as Kd, was 1520 nM. The same molecule displayed an IC50 in experiment [4] of 2540 nM.

Molecule ACRWHXSEXCGAWCA (CiRWH[HPhe]SE[Aze]CiiGAWCiii, scaffold TBMT) [BCY21689] had an IC50 in experiment [2] of 1240 nM.

B4: BCY15914 (peptide)
peptide: ACRWSVEDPCGAWCAK-NH2
modifications: linker 2-10-14 via TBMT (inferred); not fully specified (residue 16); also: homodimer via shared N-(amine-PEG2)-N-bis(PEG3-azide) linker
notes: homodimer of BCY13883; scaffold TBMT; also called CD16a fluorescent dimer
Take B4: the 50% inhibitory concentration (IC50) in experiment [4] came to 308 nM; in experiment [5], 51.1 nM.

In the case of ACRWYFSEXCAAWCA (CiRWYFSE[Aze]Cii[dA]AWCiii, scaffold TBMT) [BCY20394], binding in experiment [3] was put at a Kd of 1000 nM.
